Values quoted from earlier work, collected in patent US20210265014A1, “METHOD AND ELECTRONIC SYSTEM FOR PREDICTING AT LEAST ONE FITNESS VALUE OF A PROTEIN VIA AN EXTENDED NUMERICAL SEQUENCE, RELATED COMPUTER PROGRAM PRODUCT” (PEACCEL, priority 2018, published 2021).

Settings: Aspergillus niger epoxide hydrolase; for ΔΔG values: enantioselectivity as ΔΔG‡=−RT ln(E); for E-value: enantioselectivity, glycidyl phenyl ether

Molecule | ΔΔG values | E-value
L215 F_A217N_R219S_L249Y_T317W_T318V_C350V: epoxide hydrolase mutant from Aspergillus niger (protein) NHKAFAKFPSSASISPNPFTVSIPDEQLDDLKTLVRLSKIAPPTYESLQADGRFGITSEWLTTMREKWLSEFDWRPFEARLNSFPQFTTEIEGLTIHFAALFSEREDAVPIALLHGWPGSFVEFYPILQLFREEYTPETLPFHLVVPSLPGYTFSSGPPLDKDFGLMDNARVVDQLMKDLGFGSGYIIQGGDIGSFVGRLLGVGFDACKAVHLNLCNMSAPPEGPSIESLSAAEKEGIARMEKFMTDGYAYAMEHSTRPSTIGHVLSSSPIALLAWIGEKYLQWVDKPLPSETILEMVSLYWLTESFPRAIHTYREWVPTASAPNGATMLQKELYIHKPFGFSFFPKDLVPVPRSWIATTGNLVFFRDHAEGGHFAALERPRELKTDLTAFVEQVWQK | -2.73 kcal/mol | 93.2
WT: WT epoxide hydrolase sequence from Aspergillus niger (protein, Aspergillus niger) NHKAFAKFPSSASISPNPFTVSIPDEQLDDLKTLVRLSKIAPPTYESLQADGRFGITSEWLTTMREKWLSEFDWRPFEARLNSFPQFTTEIEGLTIHFAALFSEREDAVPIALLHGWPGSFVEFYPILQLFREEYTPETLPFHLVVPSLPGYTFSSGPPLDKDFGLMDNARVVDQLMKDLGFGSGYIIQGGDIGSFVGRLLGVGFDACKAVHLNLCAMRAPPEGPSIESLSAAEKEGIARMEKFMTDGLAYAMEHSTRPSTIGHVLSSSPIALLAWIGEKYLQWVDKPLPSETILEMVSLYWLTESFPRAIHTYRETTPTASAPNGATMLQKELYIHKPFGFSFFPKDLCPVPRSWIATTGNLVFFRDHAEGGHFAALERPRELKTDLTAFVEQVWQK | -0.85 kcal/mol | 4
